± gives the uncertainty stated by the source.

34 variants from the Human Domainome abundance scans (Beltran et al. 2025) can be followed below.

The labels stand for the following.
B1: Ankyrin-2, residues 3571 to 3650; numbered along this chain, Q01484 (parent)
chain: ERLAYIADHLGFSWTELARELDFTEEQIHQIRIENPNSLQDQSHALLKYWLERDGKHATDTNLVECLTKINRMDIVHLME

Variants of B1 are the subject of the series. The series is described as follows: abundance fitness (aPCA) (normalised: wild type 0, dead -1); higher = more abundant; growth selection in yeast, the domain comes from the species named. The settings on record: Homo sapiens.
Take ERLAYIPDHLGFSWTELARELDFTEEQIHQIRIENPNSLQDQSHALLKYWLERDGKHATDTNLVECLTKINRMDIVHLME: the abundance fitness was -0.36 ± 0.18.
As for ERLAYIADHLGFSWTELARELDFTEEQIHQIRIENPNSLQDQSHALLKYWLERDGKNATDTNLVECLTKINRMDIVHLME, the figure is -0.002 ± 0.13; as for ERLAYIADHLGFSWTELARELDFTEEQIHQIRIENPNSLQDQSHALLKYWLERDGKVATDTNLVECLTKINRMDIVHLME, 0 ± 0.092; as for ERLAYIADHLGFSWTELARELDFTEEQIHQIRIENPNSLQDQSHALLKYWLERDGKHATDTNLVECATKINRMDIVHLME, -0.224 ± 0.094.
The value for ERLAYIADHLGFSWTELAHELDFTEEQIHQIRIENPNSLQDQSHALLKYWLERDGKHATDTNLVECLTKINRMDIVHLME was 0.028 ± 0.13; that for ERLAYIADHLGFSWTELARELDFTEEQIHQIRIENPNSLQDQSHALLKYWLERDGKHATDTNLVECLTKINRMDICHLME was -0.027 ± 0.18.
The value for ERLAYIADHLGFSWTELARELDFTEEQIHQIRIENPNSLQDQSHALLKYWLERDGKHATDTNLVECLTKINRMDIAHLME was -0.091 ± 0.16; that for ERLAYIADHLGFSWTELARELDFTEEQIHQIRIENPNSLQDQSHALLKYWLERDGKHATDTNLVECLTKINRMDIRHLME was -0.223 ± 0.093; that for ERLAYIADHLGFSWTELARELDFTEEQIHQIRIENPNSLQDQSHALLKYWLERDGKHAADTNLVECLTKINRMDIVHLME was -0.035 ± 0.059.
As for ERLAYIADHLGFSWTELARELDFTEEQIHQIRIENPNSLQDQSHALLTYWLERDGKHATDTNLVECLTKINRMDIVHLME, the abundance fitness amounted to 0.04 ± 0.058.
As for ERLAYIADHLGFSWTELARELDFTEEQIHQIRIENPNSLQDQSHALLSYWLERDGKHATDTNLVECLTKINRMDIVHLME, the figure is -0.094 ± 0.055.
As for ERLAYIADHLGFSWTELARELDFTEEQIHQIRIENPNSLQDQSHALLKYWLERDGKHATDTNLVECLTKINRMDGVHLME, the figure is -0.263 ± 0.087.
In the case of ERLAYIADHLGFSWTELARELDFYEEQIHQIRIENPNSLQDQSHALLKYWLERDGKHATDTNLVECLTKINRMDIVHLME, the abundance fitness turned out to be 0.053 ± 0.13.
As for ERLAYIADHLGFSWTELARELDFTEEQIHQIRIENPNSLQDQSHALLKYWLERDGKHNTDTNLVECLTKINRMDIVHLME, the abundance fitness stood at 0.054 ± 0.15.
As for ERLAYIADHLGFSWTELARELDFTEEQIHQIRIENPNSLQDQSHALLKYWLERDGKHRTDTNLVECLTKINRMDIVHLME, the figure is -0.067 ± 0.044; as for ERLAYIADHLGFSRTELARELDFTEEQIHQIRIENPNSLQDQSHALLKYWLERDGKHATDTNLVECLTKINRMDIVHLME, -0.994 ± 0.16; as for ERLAYIADHLGFSWTELARELDRTEEQIHQIRIENPNSLQDQSHALLKYWLERDGKHATDTNLVECLTKINRMDIVHLME, -1.05 ± 0.17.
As for ERLAYIADHLGFSWKELARELDFTEEQIHQIRIENPNSLQDQSHALLKYWLERDGKHATDTNLVECLTKINRMDIVHLME, the figure is 0.079 ± 0.14; as for ERLAYIADHLGFSWTELARELDFTEEQIHQIRIENPNSLQDQSHALHKYWLERDGKHATDTNLVECLTKINRMDIVHLME, -0.592 ± 0.3; as for ERLAYIADHLGFSWTELARELDFTEEQIHQIRIENPNSLQDQSHALTKYWLERDGKHATDTNLVECLTKINRMDIVHLME, -0.026 ± 0.059.
As for ERLAYIADHLGFSWTELARELDFTEEQIHQIRIENPNSLQDQSHALIKYWLERDGKHATDTNLVECLTKINRMDIVHLME, the figure is -0.061 ± 0.11; as for ERLAYIADHLGFSWTELARELDFTEEQIHQIRIENPNSLQDQSHALYKYWLERDGKHATDTNLVECLTKINRMDIVHLME, -0.148 ± 0.18.
As for ERLAYIADHLGFSWTELARELDFTEEQIHQIRIENKNSLQDQSHALLKYWLERDGKHATDTNLVECLTKINRMDIVHLME, the abundance fitness was -0.125 ± 0.1.
The value for ERLAYIADHLAFSWTELARELDFTEEQIHQIRIENPNSLQDQSHALLKYWLERDGKHATDTNLVECLTKINRMDIVHLME was -0.058 ± 0.064; that for ERLAYIADHLCFSWTELARELDFTEEQIHQIRIENPNSLQDQSHALLKYWLERDGKHATDTNLVECLTKINRMDIVHLME was -0.106 ± 0.092.
The value for ERLAYIADHLGFSWTELARELDFTEEQIHQIRIENPNSLQDQSHALLKYWLERDQKHATDTNLVECLTKINRMDIVHLME was 0.008 ± 0.047; that for ERLAYIADHLGFSWTELARELDFTEEQIHQIRIENPNSLQDQSHALLKYWLERDMKHATDTNLVECLTKINRMDIVHLME was -0.061 ± 0.051.
Take ERLAYIADHLGFSWTELARELDFTEEQIHQIRIENPNSLQDQSHALLKYWLERDSKHATDTNLVECLTKINRMDIVHLME: the abundance fitness is -0.045 ± 0.036.
As for ERLAYIADHLGFSWTELARELDFTEEQIHQIRIENPNSLQDQSHALLKYWLERDFKHATDTNLVECLTKINRMDIVHLME, the abundance fitness was -0.143 ± 0.051.
The value for ERLAYIADHLGFSWTELARELDFTEEQIHQIRIENPNSLQDQSHALLKYWLERDGKHATDTNLVECLAKINRMDIVHLME was -0.057 ± 0.13; that for ERLAYIADHLGFSWTELARELDFTEEQIHQIRIENPNSLQDQSHALLKDWLERDGKHATDTNLVECLTKINRMDIVHLME was -0.031 ± 0.12.
As for ERLAYIADHLGFSWTELARELDFTEEQIHQIRIENPNSLQDQSHALLKYWLERDGKHATDTNLVSCLTKINRMDIVHLME, the figure is -0.056 ± 0.05; as for ERLAYIADHLGISWTELARELDFTEEQIHQIRIENPNSLQDQSHALLKYWLERDGKHATDTNLVECLTKINRMDIVHLME, 0.019 ± 0.17.
As for ERLAYIADHLGASWTELARELDFTEEQIHQIRIENPNSLQDQSHALLKYWLERDGKHATDTNLVECLTKINRMDIVHLME, the figure is 0.038 ± 0.079.
